Source: patent US20190002560A1 (Alector, published 2019)
Where “and” joins values, the source holds several entries; their conditions need not be identical. Equal entries are not always repeated.

Experiments:
[1] = target: T1, human CD33 (human, UniProt P20138 18-364); assay: flow cytometry, human primary dendritic cells, 10 ug/ml antibody
[2] = target: CD33-Fc (human) (UniProt P20138); assay: red blood cell solid adhesion assay, plate-bound CD33-Fc, antibody at 1.0 ug/ml; competitor: ligands on red blood cells; % of RBC binding without antibody
[3] = target: T1, human CD33; assay: cell-based or functional assay
[4] = target: T1, human CD33; assay: flow cytometry, CHO cells expressing recombinant human CD33, 10 ug/ml antibody, PE secondary
[5] = target: T1, human CD33; assay: flow cytometry, human primary monocytes, 10 ug/ml antibody
[6] = target: T1, human CD33; assay: flow cytometry, human primary macrophages, 10 ug/ml antibody
[7] = target: N53A; assay: alanine-scanning library in HEK-293T cells, immunofluorescence by flow cytometry; mean of duplicates, mock-subtracted, normalised to wild-type CD33; range in parentheses
Chain of N53A (receptor chain, as listed by the source N53A N53A limits assumed): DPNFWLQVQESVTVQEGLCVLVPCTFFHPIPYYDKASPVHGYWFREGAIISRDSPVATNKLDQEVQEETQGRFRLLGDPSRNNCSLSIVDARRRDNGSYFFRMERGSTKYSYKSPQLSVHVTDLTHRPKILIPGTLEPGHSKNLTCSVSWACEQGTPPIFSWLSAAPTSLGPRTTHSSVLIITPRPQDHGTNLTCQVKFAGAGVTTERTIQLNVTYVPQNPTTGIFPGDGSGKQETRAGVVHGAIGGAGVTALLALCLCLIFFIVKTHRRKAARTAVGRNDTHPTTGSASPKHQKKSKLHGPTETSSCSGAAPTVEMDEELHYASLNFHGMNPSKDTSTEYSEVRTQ

[8] = target: Y50A; assay: as above
Chain of Y50A (receptor chain, as listed by the source Y50A Y50A limits assumed): as the sequence (receptor chain, as listed by the source N53A N53A limits assumed) above, with Y33A, A36N counted along it

[9] = target: P46A; assay: as above
Chain of P46A (receptor chain, as listed by the source P46A P46A limits assumed): as the sequence (receptor chain, as listed by the source N53A N53A limits assumed) above, with P29A, A36N counted along it

[10] = target: K52A; assay: as above
Chain of K52A (receptor chain, as listed by the source K52A K52A limits assumed): as the sequence (receptor chain, as listed by the source N53A N53A limits assumed) above, with K35A, A36N counted along it

[11] = target: F44A; assay: as above
Chain of F44A (receptor chain, as listed by the source F44A F44A limits assumed): as the sequence (receptor chain, as listed by the source N53A N53A limits assumed) above, with F27A, A36N counted along it

[12] = target: P19A; assay: as above
Chain of P19A (receptor chain, as listed by the source P19A P19A limits assumed): as the sequence (receptor chain, as listed by the source N53A N53A limits assumed) above, with P2A, A36N counted along it

[13] = target: D18A; assay: as above
Chain of D18A (receptor chain, as listed by the source D18A D18A limits assumed): as the sequence (receptor chain, as listed by the source N53A N53A limits assumed) above, with D1A, A36N counted along it

[14] = target: Y49A; assay: as above
Chain of Y49A (receptor chain, as listed by the source Y49A Y49A limits assumed): as the sequence (receptor chain, as listed by the source N53A N53A limits assumed) above, with Y32A, A36N counted along it

[15] = target: N20A; assay: as above
Chain of N20A (receptor chain, as listed by the source N20A N20A limits assumed): as the sequence (receptor chain, as listed by the source N53A N53A limits assumed) above, with N3A, A36N counted along it

[16] = target: F21A; assay: as above
Chain of F21A (receptor chain, as listed by the source F21A F21A limits assumed): as the sequence (receptor chain, as listed by the source N53A N53A limits assumed) above, with F4A, A36N counted along it

[17] = target: T1, human CD33; assay: flow cytometry binding curve on human primary dendritic cells, about 0.003-3 nM antibody
[18] = target: histidine-tagged human CD33 (Sino Biological) (human, UniProt P20138 18-364); assay: SPR (BiaCore T200, 25 C), antibody captured on anti-mouse IgG chip, 20 nM His-tagged CD33 in solution, single-concentration 1:1 fit; apparent KD
Chain of histidine-tagged human CD33 (Sino Biological) (P20138 18-364): as the sequence (receptor chain, as listed by the source N53A N53A limits assumed) above, with A36N counted along it

[19] = target: T1, human CD33; assay: flow cytometry binding curve on human primary dendritic cells, about 0.003-3 nM antibody (FIG. 5H)

T1 sequence (P20138 18-364 limits assumed): as the sequence (receptor chain, as listed by the source N53A N53A limits assumed) above, with A36N counted along it

Molecule	% Positive [1] [%]	MFI [1]	Percent RBC Binding to CD33 [2] [%]	% CD33 surface expression, U937 cells (FACS, 1.0 ug/ml antibody, 24 h, % of no antibody) [3] [%]	% CD33 surface expression, human microglial cells (FACS, % of no antibody) [3] [%]	% CD33 surface expression, human primary dendritic cells (FACS, 1.0 ug/ml antibody, 24 h, % of no antibody) [3] [%]	% CD33 surface expression, human primary macrophages (FACS, 1.0 ug/ml antibody, 24 h, % of no antibody) [3] [%]	% CD33 surface expression, human primary monocytes (FACS, 1.0 ug/ml antibody, 24 h, % of no antibody) [3] [%]	% Positive [4] [%]	MFI [4]	% Positive [5] [%]	MFI [5]	% Positive [6] [%]	MFI [6]	Binding Reactivity (% WT) [7] [% WT]	Binding Reactivity (% WT) [8] [% WT]	Binding Reactivity (% WT) [9] [% WT]	Binding Reactivity (% WT) [10] [% WT]	EC50 [17] [nM]	Kd [18] [nM]	other results
isotype mIgG1 control antibody	1.97	861	83.8	95.7	92.1	70.5	95.4	104	0.47	227	2.38	109	4.16	1220							
WM53 MAb (antibody)															164	75.1	152	12.4			Binding Reactivity (% WT) [11]: 76.5 % WT; Binding Reactivity (% WT) [12]: 116 % WT; Binding Reactivity (% WT) [13]: 98 % WT; Binding Reactivity (% WT) [14]: 1.7 % WT; Binding Reactivity (% WT) [15]: 166 % WT; Binding Reactivity (% WT) [16]: 137 % WT
anti-CD33 antibody gemtuzumab (antibody, V domains shown, Commercially available antibody) VH: EVQLVQSGAEVKKPGSSVKVSCKASGYTITDSNIHWVRQAPGQSLEWIGYIYPYNGGTDYNQKFKNRATLTVDNPTNTAYMELSSLRSEDTAFYYCVNGNPWLAYWGQGTLVTVSS VL: DIQLTQSPSTLSASVGDRVTITCRASESLDNYGIRFLTWFQQKPGKAPKLLMYAASNQGSGVPSRFSGSGSGTEFTLTISSLQPDDFATYYCQQTKEVPWSFGQGTKVEVKR																			0.613	1.1	EC50 for reducing cell surface expression of CD33 (12-point 2-fold titration, FACS) [3]: 108 pM
anti-CD33 antibody 2F5 (antibody, V domains shown, Mouse hybridoma antibody, tested under the label 2F5; also called C-2F5; 2F5 mAb) VH: EVQLQQSGPELVKPGASVKISCKASGYTFTDYNLHWVKLSHGKSLEWIGFIYPSNGITGYNQKFKNKATLTVDNSSSTAYMELRSLTSEDSAVYYCARSTVDYFDYWGQGTTLTVSS VL: ZTQSLASLAVSLGQRATMSCRASQSVSTSTYSYMHWYQQKPGQPPKLLIKYASNLECGVPARFSGSGZGTDFTLNIHPVEEEDSATYYCQHSWEIPLTFGGGTKLEMK	99	4300	11.5	46.7	25	15.9	58.7	23.3	87	9520	97.5	1200	96.7	2510	78.2	32.7	105	8.9	0.138	0.3	EC50 for reducing cell surface expression of CD33 (12-point 2-fold titration, FACS) [3]: 21.5 pM; cell surface CD33 on hCD45+ hCD14+ blood cells of hu-NSGS mice (FACS, 40 mg/kg i.p.) [3]: 80%; cell surface CD33 on human primary monocytes at 0.001 ug/ml antibody (FACS, % of no antibody) [3]: 50% and 30%; cell surface CD33 on human primary monocytes at 0.01 ug/ml antibody (FACS, % of no antibody) [3]: 20%; cell surface CD33 on peripheral human CD45+ CD14+ monocytes of humanized NOG mice (FACS, single i.p. dose) [3]: 50%; fold improvement over gemtuzumab in reducing cell surface levels of CD33 on human primary monocytes [3]: 10 fold; fold improvement over lintuzumab in reducing cell surface levels of CD33 on human primary monocytes [3]: 100 fold; Binding Reactivity (% WT) [11]: 102 % WT; Binding Reactivity (% WT) [12]: 102 % WT; Binding Reactivity (% WT) [13]: 79.5 % WT; Binding Reactivity (% WT) [14]: 20.6 % WT; Binding Reactivity (% WT) [15]: 111 % WT; Binding Reactivity (% WT) [16]: 122 % WT; EC50 [19]: < 0.2 nM
anti-CD33 antibody 1A8 (antibody, V domains shown, Mouse hybridoma antibody; mIgG1 served as isotype control; also called 1A8.2) VH: QVQLQQSGAELVKPGASVKLSCKASGYTFTSYDINWVRQRPEQGLEWIGWIFPGDGSTKYNEKFKGKATLTTDKSSNTTYMQLSRLTSEDSAVYFCARGYHYAMDSWGQGTSVTVSS VL: DIKMTQSPSSMYESLGERVTITCKASQDINKYLSWLQQKPGKSPKTLIYRANRLVDGVPSRFSGSGSGQDYSLTISSLEYEDMGIYHCLQYDEFPLTFGAGTKLELK			10																	6	
anti-CD33 antibody lintuzumab (antibody, V domains shown, Commercially available antibody) VH: QVQLVQSGAEVKKPGSSVKVSCKASGYTFTDYNMHWVRQAPGQGLEWIGYIYPYNGGTGYNQKFKSKATITADESTNTAYMELSSLRSEDTAVYYCARGRPAMDYWGQGTLVTVSS VL: DIQMTQSPSSLSASVGDRVTITCRASESVDNYGISFMNWFQQKPGKAPKLLIYAASNQGSGVPSRFSGSGSGTDFTLTISSLQPDDFATYYCQQSKEVPWTFGQGTKVEIKR																			0.845		
